From patent publication US20250059270A1 (SESEN BIO, published 2025)
Where a chain is given by its changes, count along the chain named.

T1: rabbit IL-6 (rabbit, UniProt Q9MZR1 27-241, limits assumed)
T1 sequence (looked up): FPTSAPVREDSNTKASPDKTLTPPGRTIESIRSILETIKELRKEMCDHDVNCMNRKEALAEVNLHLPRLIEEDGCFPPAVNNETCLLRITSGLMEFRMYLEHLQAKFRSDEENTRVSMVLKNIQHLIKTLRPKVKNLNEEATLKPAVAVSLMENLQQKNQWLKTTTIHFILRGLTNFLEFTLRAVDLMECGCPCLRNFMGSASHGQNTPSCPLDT

T2: mouse IL-6 (mouse, UniProt P08505 25-211)
T2 construct: also called rodent IL-6
T2 sequence (looked up): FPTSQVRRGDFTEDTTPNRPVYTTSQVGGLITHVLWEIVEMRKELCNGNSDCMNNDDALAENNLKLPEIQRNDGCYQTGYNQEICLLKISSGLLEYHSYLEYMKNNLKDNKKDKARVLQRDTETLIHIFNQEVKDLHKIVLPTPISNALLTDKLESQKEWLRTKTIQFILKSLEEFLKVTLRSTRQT

T3: rat IL-6 (rat, UniProt P20607 25-211)
T3 construct: also called rodent IL-6
T3 sequence (looked up): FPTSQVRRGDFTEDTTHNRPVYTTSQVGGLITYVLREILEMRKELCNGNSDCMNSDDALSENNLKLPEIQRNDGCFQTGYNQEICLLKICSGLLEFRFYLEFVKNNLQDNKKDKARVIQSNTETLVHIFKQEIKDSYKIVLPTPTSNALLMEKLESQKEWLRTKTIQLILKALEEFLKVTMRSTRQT

T4: dog IL-6 (dog, UniProt P41323 21-207)
T4 construct: also called canine IL-6
T4 sequence (looked up): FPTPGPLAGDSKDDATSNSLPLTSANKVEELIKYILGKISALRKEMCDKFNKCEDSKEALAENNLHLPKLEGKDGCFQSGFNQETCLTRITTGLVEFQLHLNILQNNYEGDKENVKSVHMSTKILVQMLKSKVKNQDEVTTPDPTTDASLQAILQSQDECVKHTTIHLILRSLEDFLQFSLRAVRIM

B1: 018 Fab (Fab, V domains shown)
VH: QVQLVQSGAEVKKPGSSVKVSCKASGYALSNYLIEWVRQAPGQGLEWMGVITPGSGTINYAQKFQGRVTITADESTSTAYMELSSLRSEDTAVYYCARSRWDPLYYYALEYWGQGTTVTVSS
VL: DIVMTQSPDSLAVSLGERATINCRASESVDNYGIPFMNWYQQKPGQPPKLLIYAASNRGSGVPDRFSGSGSGTDFTLTISSLQAEDVAVYYCQQSEEVPLTFGQGTKLEIKR
notes: Fab with CK and IgG1 CH1 domains; also called Fab fragment of the h64-1.4 humanized antibody
B2: h64 IgG (humanized 64, human IgG1) (antibody, V domains shown)
VH: B1 VH with L29F
VL: DIVMTQSPDSLAVSLGERATINCRASESVDNYGISFMNWYQQKPGQPPKLLIYAASNQGSGVPDRFSGSGSGTDFTLTISSLQAEDVAVYYCQQSKEVPLTFGQGTKLEIK
notes: Expressed as inline fusions with the human IgG1 constant domains; also called the original humanized molecule; original h64 antibody

Assays:
[1] = molecular target: T1, rabbit IL-6; test: monovalent affinity, method not stated
[2] = molecular target: T2, mouse IL-6; test: monovalent affinity, method not stated
[3] = molecular target: T3, rat IL-6; test: monovalent affinity, method not stated
[4] = molecular target: T4, dog IL-6; test: monovalent affinity, method not stated
[5] = molecular target: T5, human IL-6 (human, UniProt P05231 30-212); test: yeast system (yeast display, biotinylated human IL-6); original humanized h64, before affinity maturation; yeast system
T5 construct: Recombinant protein was R&D Systems 206-IL/CF where stated; It was biotinylated in the yeast display assays and amine-coupled to the chip in SPR; also called free IL-6; biotinylated human IL-6

| Binder | Kd [1] | Kd [2] | Kd [3] | Kd [4] | Kd [5] |
| --- | --- | --- | --- | --- | --- |
| B1 | > 1000 nM | > 1000 nM | > 1000 nM | > 1000 nM | – |
| B2 | – | – | – | – | 0.343 nM |
